The labels stand for the following.
T1: GST-PHD1 (S287–K347) of histone demethylase KDM5A (UniProt P29375 287-347)
T1 sequence (looked up): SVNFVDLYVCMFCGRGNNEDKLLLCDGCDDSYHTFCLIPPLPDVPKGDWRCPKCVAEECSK

T2: PHD1^287–347-KDAC8–6xHis fusion construct (UniProt P29375 287-347)
T2 sequence (looked up): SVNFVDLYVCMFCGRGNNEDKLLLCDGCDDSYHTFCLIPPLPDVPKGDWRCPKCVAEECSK

Ends that are not written are not given here. * marks the point of attachment. NHCH2CH2(5-OH-indol-3-yl) = Oc1ccc2[nH]cc(CCN*)c2c1; fluorescein = fluorescein label (C-terminal); Me3 = trimethyl (trimethyl-lysine); Me2 = dimethyl (dimethyl-lysine) A value given as a limit tells only on which side of the number the result lay.

The first experiment concerns the target T1, GST-PHD1 (S287–K347) of histone …. The experiment can be described thus: fluorescence polarisation.
Conditions: not given
For orientation: Polarisation of emitted light reports the rotation of a fluorescent probe.
Turning to ARTKATARKS (peptide, UniProt P68431 2-11, looked up) [H3 Q5A 10-mer peptide], the affinity, expressed as Ki, was 0.75 µM.
For the molecule ARYKYTARKS (peptide, UniProt P68431 2-11, looked up) [H3 T3Y Q5Y 10-mer peptide], the Ki is greater than 100 µM.
On the same count and under the same terms, for ARAKQTARKS (peptide, UniProt P68431 2-11, looked up) [H3 T3A 10-mer peptide] the value was greater than 100 µM.
On the same count and under the same terms, for ARYKQTARKS (peptide, UniProt P68431 2-11, looked up) [H3 T3Y 10-mer peptide] the value was greater than 100 µM; for ARDKQTARKS (peptide, UniProt P68431 2-11, looked up) [H3 T3D 10-mer peptide], greater than 100 µM; for ARFKQTARKS (peptide, UniProt P68431 2-11, looked up) [H3 T3F 10-mer peptide], greater than 100 µM.

Another experiment addresses T2, PHD1^287–347-KDAC8–6xHis fusion …. Briefly: PI-SAMDI.
Conditions: not given
As for ARTKSC [H3 Q5S 6-mer ligand (ARXKZC with X = T, Z = S)], the binding result is “binds”.
Turning to ARVKWC [H3 T3V Q5W 6-mer ligand (ARXKZC with X = V, Z = W)], the binding result is reported as “binds”.
The same measure, in the same setting: for ARYKQC [H3 T3Y 6-mer ligand (ARXKZC with X = Y, Z = Q)] the value was “binds”; for ARTKRC [H3 Q5R 6-mer ligand (ARXKZC with X = T, Z = R)], “binds”.
Regarding ARVKRC [H3 T3V Q5R 6-mer ligand (ARXKZC with X = V, Z = R)], the binding result was “binds”.
Still for that read-out and setting: for ARYKRC [H3 T3Y Q5R 6-mer ligand (ARXKZC with X = Y, Z = R)] the value was “binds”; for ARYKYC [H3 T3Y Q5Y 6-mer ligand (ARXKZC with X = Y, Z = Y)], “binds”.

Another experiment relates to PHD1 domain of KDM5A.
Experiment: not given
As to conditions: result in words; cited from earlier work.
On to “H3K9me3: well-characterized H3 12-mer ligand bearing K9me3 (ARTKQTARKSGC; trimethyl-lysine at 9 (H3K9me3)) [Ligand H3K9me3]”, for which the “Binding to PHD1 as previously established” value (from here on “Binding to PHD1”) is reported as “does not impact PHD1-H3 association”.
Take “N-terminally acetylated H3: N-terminally acetylated H3 12-mer peptide (Ac-ARTKQTARKSGC)”: the “Binding to PHD1” value is recorded as “not bind PHD1”.
“H3 R2A: well-characterized H3 12-mer ligand with R2A mutation (AATKQTARKSGC)”: the “Binding to PHD1” value is on record as “strongly reduces binding”.

A further experiment deals with T1, GST-PHD1 (S287–K347) of histone …. Briefly: fluorescence polarisation.
Conditions: not given
This is another data set of the same source.
Take ARTKQTARKSGC (not fully specified (C-terminus)) [unmodified H3 12-mer ligand (first 10 N-terminal residues of H3 and a GC moiety)]: the binding result is on record as “binds”.
The same measure, in the same setting: for ARTKQTARKS-fluorescein (peptide, UniProt P68431 2-11, looked up) [H3 peptide (1–10) carrying a C-terminal fluorescein label] the value was “binds”; for ARTKQ(NHCH2CH2(5-OH-indol-3-yl))TARKSGC (not fully specified (C-terminus)) [Q5-serotonylated H3 12-mer ligand], “binds”.

In a further experiment the target is T2, PHD1^287–347-KDAC8–6xHis fusion …. Briefly: PI-SAMDI.
Conditions: not given
This is another data set of the same source.
For ARTKQTARKSGC (not fully specified (C-terminus)) [unmodified H3 12-mer ligand (first 10 N-terminal residues of H3 and a GC moiety)], the binding result was “binds”.
On the same count and under the same terms, for ARTKQTARKSGC (not fully specified; trimethyl-lysine at 9 (H3K9me3)) [H3K9me3 12-mer ligand] the value was “binds”; for ARTKETARKSGC [H3 Q5E 12-mer ligand], “binds”.
The same measure, in the same setting: for ARTK(Me3)QTARKSGC (not fully specified (C-terminus)) [H3K4me3 12-mer ligand] the value was “binds”; for ARTKYTARKSGC [H3 Q5Y 12-mer ligand], “binds”.
On the same count and under the same terms, for ARTK(Me)QTARKSGC (not fully specified (C-terminus)) [H3K4me1 12-mer ligand] the value was “binds”; for ARTK(Me2)QTARKSGC (not fully specified (C-terminus)) [H3K4me2 12-mer ligand], “binds”; for ARTKQ(NHCH2CH2(5-OH-indol-3-yl))TARKSGC (not fully specified (C-terminus)) [Q5-serotonylated H3 12-mer ligand], “binds”.

What is called Ki is a dissociation constant, usually derived from enzyme kinetics or from competition with a known ligand.
